B1: Oxalate decarboxylase (OxDC) (Bacillus subtilis subsp. subtilis str. 168; H279D/T263E) (protein)
chain: MKKQNDIPQPIRGDKGATVKIPRNIERDRQNPDMLVPPETDHGTVSNMKFSFSDTHNRLEKGGYAREVTVRELPISENLASVNMRLKPGAIRELHWHKEAEWAYMIYGSARVTIVDEKGRSFIDDVGEGDLWYFPSGLPHSIQALEEGAEFLLVFDDGSFSENSTFQLTDWLAHTPKEVIAANFGVTKEEISNLPGKEKYIFENQLPGSLKDDIVEGPNGEVPYPFTYRLLEQEPIESEGGKVYIADSTNFKVSKTIASALVEVEPGAMRELHWHPNTDEWQYYISGKARMTVFASDGHARTFNYQAGDVGYVPFAMGHYVENIGDEPLVFLEIFKDDHYADVSLNQWLAMLPETFVQAHLDLGKDFTDVLSKEKHPVVKKKCSK
B2: Oxalate decarboxylase (OxDC) (Bacillus subtilis subsp. subtilis str. 168; I191F/T263E) (protein)
chain: MKKQNDIPQPIRGDKGATVKIPRNIERDRQNPDMLVPPETDHGTVSNMKFSFSDTHNRLEKGGYAREVTVRELPISENLASVNMRLKPGAIRELHWHKEAEWAYMIYGSARVTIVDEKGRSFIDDVGEGDLWYFPSGLPHSIQALEEGAEFLLVFDDGSFSENSTFQLTDWLAHTPKEVIAANFGVTKEEFSNLPGKEKYIFENQLPGSLKDDIVEGPNGEVPYPFTYRLLEQEPIESEGGKVYIADSTNFKVSKTIASALVEVEPGAMRELHWHPNTHEWQYYISGKARMTVFASDGHARTFNYQAGDVGYVPFAMGHYVENIGDEPLVFLEIFKDDHYADVSLNQWLAMLPETFVQAHLDLGKDFTDVLSKEKHPVVKKKCSK
B3: Oxalate decarboxylase (OxDC) (Bacillus subtilis subsp. subtilis str. 168; Y244R) (protein)
chain: MKKQNDIPQPIRGDKGATVKIPRNIERDRQNPDMLVPPETDHGTVSNMKFSFSDTHNRLEKGGYAREVTVRELPISENLASVNMRLKPGAIRELHWHKEAEWAYMIYGSARVTIVDEKGRSFIDDVGEGDLWYFPSGLPHSIQALEEGAEFLLVFDDGSFSENSTFQLTDWLAHTPKEVIAANFGVTKEEISNLPGKEKYIFENQLPGSLKDDIVEGPNGEVPYPFTYRLLEQEPIESEGGKVRIADSTNFKVSKTIASALVTVEPGAMRELHWHPNTHEWQYYISGKARMTVFASDGHARTFNYQAGDVGYVPFAMGHYVENIGDEPLVFLEIFKDDHYADVSLNQWLAMLPETFVQAHLDLGKDFTDVLSKEKHPVVKKKCSK
B4: Oxalate decarboxylase (OxDC) (Bacillus subtilis subsp. subtilis str. 168; H279D) (protein)
chain: MKKQNDIPQPIRGDKGATVKIPRNIERDRQNPDMLVPPETDHGTVSNMKFSFSDTHNRLEKGGYAREVTVRELPISENLASVNMRLKPGAIRELHWHKEAEWAYMIYGSARVTIVDEKGRSFIDDVGEGDLWYFPSGLPHSIQALEEGAEFLLVFDDGSFSENSTFQLTDWLAHTPKEVIAANFGVTKEEISNLPGKEKYIFENQLPGSLKDDIVEGPNGEVPYPFTYRLLEQEPIESEGGKVYIADSTNFKVSKTIASALVTVEPGAMRELHWHPNTDEWQYYISGKARMTVFASDGHARTFNYQAGDVGYVPFAMGHYVENIGDEPLVFLEIFKDDHYADVSLNQWLAMLPETFVQAHLDLGKDFTDVLSKEKHPVVKKKCSK
B5: Oxalate decarboxylase (OxDC) (Bacillus subtilis subsp. subtilis str. 168; I191F) (protein)
chain: MKKQNDIPQPIRGDKGATVKIPRNIERDRQNPDMLVPPETDHGTVSNMKFSFSDTHNRLEKGGYAREVTVRELPISENLASVNMRLKPGAIRELHWHKEAEWAYMIYGSARVTIVDEKGRSFIDDVGEGDLWYFPSGLPHSIQALEEGAEFLLVFDDGSFSENSTFQLTDWLAHTPKEVIAANFGVTKEEFSNLPGKEKYIFENQLPGSLKDDIVEGPNGEVPYPFTYRLLEQEPIESEGGKVYIADSTNFKVSKTIASALVTVEPGAMRELHWHPNTHEWQYYISGKARMTVFASDGHARTFNYQAGDVGYVPFAMGHYVENIGDEPLVFLEIFKDDHYADVSLNQWLAMLPETFVQAHLDLGKDFTDVLSKEKHPVVKKKCSK
B6: Oxalate decarboxylase (OxDC) (Bacillus subtilis subsp. subtilis str. 168; H279D/I191F) (protein)
chain: MKKQNDIPQPIRGDKGATVKIPRNIERDRQNPDMLVPPETDHGTVSNMKFSFSDTHNRLEKGGYAREVTVRELPISENLASVNMRLKPGAIRELHWHKEAEWAYMIYGSARVTIVDEKGRSFIDDVGEGDLWYFPSGLPHSIQALEEGAEFLLVFDDGSFSENSTFQLTDWLAHTPKEVIAANFGVTKEEFSNLPGKEKYIFENQLPGSLKDDIVEGPNGEVPYPFTYRLLEQEPIESEGGKVYIADSTNFKVSKTIASALVTVEPGAMRELHWHPNTDEWQYYISGKARMTVFASDGHARTFNYQAGDVGYVPFAMGHYVENIGDEPLVFLEIFKDDHYADVSLNQWLAMLPETFVQAHLDLGKDFTDVLSKEKHPVVKKKCSK
B7: Oxalate decarboxylase (OxDC) (Bacillus subtilis subsp. subtilis str. 168) (protein)
chain: MKKQNDIPQPIRGDKGATVKIPRNIERDRQNPDMLVPPETDHGTVSNMKFSFSDTHNRLEKGGYAREVTVRELPISENLASVNMRLKPGAIRELHWHKEAEWAYMIYGSARVTIVDEKGRSFIDDVGEGDLWYFPSGLPHSIQALEEGAEFLLVFDDGSFSENSTFQLTDWLAHTPKEVIAANFGVTKEEISNLPGKEKYIFENQLPGSLKDDIVEGPNGEVPYPFTYRLLEQEPIESEGGKVYIADSTNFKVSKTIASALVTVEPGAMRELHWHPNTHEWQYYISGKARMTVFASDGHARTFNYQAGDVGYVPFAMGHYVENIGDEPLVFLEIFKDDHYADVSLNQWLAMLPETFVQAHLDLGKDFTDVLSKEKHPVVKKKCSK

Each protein was assayed on O=C(O)C(=O)O (assay: purified protein). Conditions: pH 4.2 (optimum), 52 mM sodium acetate, 140 mM NaCl, 37 °C, potassium oxalate 0-150 mM, Mn enzyme.

Row | Protein | Km [mM] | kcat [s⁻¹] | kcat/Km [M⁻¹ s⁻¹]
1 | B1 | 5 ± 1 | 111 | 22000
2 | B2 | 5 ± 1 | 37 | 7000
3 | B3 | 5 ± 1 | 95 | 19000
4 | B4 | 6 ± 2 | 58 | 10000
5 | B5 | 7 ± 2 | 101 | 14000
6 | B6 | 5 ± 2 | 110 | 22000
7 | B7 | 7 ± 2 | 103 | 15000
